Test results: paper PMC9662066 (Emerging Microbes & Infections, 2022)
Positions count from the first letter of the chain named.

B1: A19-61.1 (antibody, V domains shown)
VH: QVQLVESGGGVVQPGRSLRLSCAASGFTFSSYAFHWVRQAPGKGLEWVAVISYDGSNQYYADSVKGRFTISRDNSKNTLYLQMNSLRADDTAVYYCARDLAIAVAGTWHYYNGMDVWGQGTTVTVSS
VL: DIQMTQSPSSVSASVGDRVIITCRASQGISSWLAWYQQKPGKAPKVLIYDASSLQSGVPSRFSGSGYGTDFTLTISSLQPEDSATYYCQQAKSFPITFGQGTRLEIK
notes: IgG1; IGHV3-30
B2: BD-667 (antibody, V domains shown)
VH: QVQLVESGGGLVKPGGSLRLSCAASGFRFSDYYMNWIRQAPGKGLEWISYIGSGGFATYYGDSVKGRFTVSRDDAENSLYLQMNSLRAEDTAVYYCARGVTSYSDNSGNYRTDDAFDIWGQGTMVTVSS
VL: EIVMTQSPATLSVSPGERATLSCRASQSVSRNLAWYQQRPGQAPRLLIYGASTRATGVAARFTGSGFGTEFTLTISGLQSEDFAVYYCQEYNNWPPWTFGQGTKVEIK
notes: IgG1; IGHV3-11
B3: R1-32 (antibody, V domains shown)
VH: EVQLVESGAEVKKPGSSVKVSCKASGGTFSSYAISWVRQAPGQGLEWMGGIIPILGIANYAQKFQGRVTITADKSTSTAYMELSSLRSEDTAVYYCARENGYSGYGAAANFDLWGRGTLVTVSS
VL: QSVLTQPPSVSGAPGQRVTISCTGSSSNIGAGYDVHWYQQLPGTAPKLLIYGNSNRPSGVPDRFSGSKSGTSASLAITGLQAEDEADYYCQSYDSSLSGSVFGGGTKLTVL
B4: MW01 (antibody, V domains shown)
VH: EVQLVQSGAEVKKPGSSVKVSCKASGGTFSSFSISWVRQAPGQGLEWMGRIIPVLGIANYAQEVQGRVTITADKSTSTAYMELSSLRSEDTAVYFCTTDRFVEPATGPFFDYWGQGTLVTVSS
VL: EIVMTQSPATLSVSPGERATLSCRASQSVSSNLAWYQQKPGQAPRLLIYGASTRATGIPARFSGSGSGTEFTLTISSLQSEDFAVYYCQQYSNWLTFGGGTKVEIK
B5: 2-15 (antibody, V domains shown)
VH: QVQLVQSGAEVKKPGASVRVSCKASGYTFTGYYMHWVRQAPGQGLEWMGWINPISDGTNYAQKFQGWVTMTRDTSISTVYMELSRLRSDDTAVYYCARGGSRCSGGNCYGWAYDAFDIWGQGTMITVSS
VL: QSALTQPASVSGSPGQSITISCTGTSSDVGGYNFVSWYQQHPGKAPKLMIYDVSKRPSGVSNRFSGSKSGNTASLTISGLQAEDEADCYCSSYTSSSTFVFGTGTKVTVL
notes: IgG1; IGHV1-2
B6: CV07-270 (antibody, V domains shown)
VH: QVQLVESGGGLVKPGGSLRLSCAASGFTFSDYYMTWIRQAPGKGLEWVSYISSSGSTIYYADSVKGRFTISRDNAKNSLYLQMNSLRAEDTAVYYCARARGSSGWYRIGTRWGNWFDPWGQGTLVTVSS
VL: B5 VL with F34Y, D52E, K55N, C88Y, T98N, F99V, T103G, K106M, V107L
B7: LY-CoV555 (antibody, V domains shown)
VH: QVQLVQSGAEVKKPGSSVKVSCKASGGTFSNYAISWVRQAPGQGLEWMGRIIPILGIANYAQKFQGRVTITADKSTSTAYMELSSLRSEDTAVYYCARGYYEARHYYYYYAMDVWGQGTAVTVSS
VL: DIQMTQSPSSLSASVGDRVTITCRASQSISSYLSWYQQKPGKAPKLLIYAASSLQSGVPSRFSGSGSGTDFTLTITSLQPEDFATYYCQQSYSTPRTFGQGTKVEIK
B8: C548 (antibody, V domains shown)
VH: QVQLVQSGAEVKKPGSSVKVSCKASGGTFSSYAISWVRQAPGQGLEWMGGIIPIFGTANYAQKFQGRVTITADESTSTAYMELSSLRSEDTAVYYCARREAYGPRDYYYYYGMDVWGQGTTVTVSS
VL: QSALTQPPSASASLGASVTLTCTLSSGYSNYKVDWYQQRPGKGPRFVMRVGTGGIVGSKGDGIPDRFSVLGSGLNRYLTIKNIQEEDESDYHCGADQGSGSNFVGVFGGGTKLTVG
notes: IgG1; IGHV1-69-encoded
B9: FC08 (antibody, V domains shown)
VH: QLLQQSGAEVKKPGSSVKVSCKASGGTFSSYAISWVRQAPGQGLEWMGGIIPIIGIANYAQKFQGRVTITADKSTSTAYMELSSLRSEDTAVYYCARERGYSGYGAAYYFDYWGQGTLVTVSS
VL: SVLTQPPSVSGAPGQRVTISCTGSSSNIGAGYDVHWYQQLPGTAPKLLIYGNSNRPSGVPDRFSGSKSGTSASLAITGLQAEDEADYYCQSYDSSLSGSVFGGGTKLTVL
B10: nCoV617 (antibody, V domains shown)
VH: QVQLVESGGGVVQPGRSLRLSCAASGFTFSSYAMHWVRQAPGKGLEWVALISYDGSNKYADSVKGRFTISRDNSKNTLYLQMNSLRAEDTAVYYCARGLGLRFLEWPISSYWGQGTLVTVSS
VL: not shown
notes: IgG1; IGHV3-30

Assays:
SARS-CoV-2 WT-RBD [1] = molecular target: T1, SARS-CoV-2 WT-RBD (SARS-CoV-2, UniProt P0DTC2); test: BLI; details: both partners purified
T1 construct: not shown: 6-His, C-terminal, kept

SARS-CoV-2 WT-RBD [2] = molecular target: T1, SARS-CoV-2 WT-RBD; test: ELISA; details: both partners purified

| Binder | binding result (SARS-CoV-2 WT-RBD [1]) | binding result (SARS-CoV-2 WT-RBD [2]) |
| --- | --- | --- |
| B1 | binds |  |
| B2 | binds |  |
| B3 |  | binds |
| B4 |  | binds |
| B5 | binds |  |
| B6 | binds |  |
| B7 |  | binds |
| B8 | binds |  |
| B9 |  | binds |
| B10 | binds |  |
